Test results reported in patent publication US6635751B1, “Isolated nucleic acids encoding activated and suppressive forms of ATF6” (HSP Research Institute, Inc., priority 1998, dated 2003).

What was measured:
[1] = test system: HeLa cells; assay: Immunoblotting time course of p50ATF6 and GRP78 in treated HeLa cells; type: cell-based, human; conditions: 7 μM A23187 or 300 μM thapsigargin
Method: HeLa cells were treated with 2 μg/ml TM, 7 μM A23187 or 300 μM thapsigargin (in the figure, simply referred to as “Tg”) for the indicated period. Alternatively, HeLa cells which were treated separately from the above treated cells were heat-shocked at 43° C. for 1 hour and then recovered at 37° C. for the indicated period. Whole cell extracts were prepared and analyzed by immunoblotting using an anti-B03N antiserum or an antiserum specific to either GRP78 or HSP70.
HeLa cells cultured in a 60-mm dish so as to have 60% confluency were incubated in the presence of 2 μg/ml tunicamycin (TM) for the indicated period. Cells were washed with PBS, scraped with a rubber policeman, and suspended in 100 μl Laemmli's SDS sample buffer. After boiling the suspension for 5 minutes, aliquots corresponding to 1×10^5 cells were subjected to SDS-PAGE (10% gel) and analyzed by immunoblotting using an anti-ATF6 antibody, or an anti-KDEL antibody recognizing GRP78. The positions of p90ATF6 and p50ATF6 are indicated by open and closed arrows, respectively. The asterisks denote non-specific bands in which a sugar chain is not added to p90ATF6. The positions of molecular weight markers (manufactured by Bio-Rad, prestained SDS-PAGE preparations) are also shown.
By lysing 1×10^6 HeLa cells in 60 μl of 1×sample buffer (62.5 mM Tris-HCl (pH 6.8), 2% SDS, 350 mM dithiothreitol and 0.01% bromophenol blue), a whole cell extract was prepared. […] Using an ECL Western blotting detection kit (manufactured by Amersham Pharmacia Biotech), each antigen was detected.
In order to determine whether or not the appearance of p50ATF6 is associated with the intracellular UPR activity, stress-induced p50ATF6 appearance and GRP78 expression were monitored with the passage of time by immunoblotting.
In order to determine whether or not p90ATF6 is directly converted to p50ATF6 by endoplasmic reticulum stress, quantitative changes in p90ATF6, p50ATF6 and the target protein GRP78 in TM-treated HeLa cells were evaluated with the passage of time by immunoblotting using the purified ATF6 antibody.

[2] = test system: human GRP78 promoter; assay: Overexpression of CREB-RP mutants with GRP78 promoter luciferase reporter in HeLa cells, ERSE-mediated transcription; type: cell-based; conditions: for ERSE-dependent transcriptional induction by the TM treatment: 2 μg/ml tunicamycin for 16 hours
Source text: In a 96-well plate, the HeLa cells were transiently transformed with a reporter plasmid pGL-G78(−132) for expressing firefly luciferase gene under the control of a human GRP78 promoter together with pcDNA3.1 vector which has no inserts or with ATF6(1-373) expression plasmid or with CREB-RP(1-389) expression plasmid. Relative activity is indicated by the mean±standard deviation (bars), based on four independent experiments (each triplicate determinations).
In a 96-well plate, the HeLa cells were transiently transformed using a reporter plasmid pGL-G78(−132) for expressing firefly luciferase gene under the control of a human GRP78 promoter together with pcDNA3.1 vector which has no inserts or with CREB-RP(308-386) expression plasmid. Transfected cells were treated with (closed bars) or without 2 μg/ml tunicamycin (open bars) for 16 hours before luciferase activities were determined. Relative activity is indicated by the mean±standard deviation (bars), based on four independent experiments (each triplicate determinations).
In the figure, closed bars and open bars indicate the same as those in FIG. 31.
The CREB-RP(1-389) expression plasmid and a reporter plasmid resulting from ligation of the luciferase gene to downstream of the GRP78 promoter or mutant GRP78 promoter were introduced into the HeLa cells to evaluate the effect of CREB-RP(1-389) overexpression on ERSE-mediated transcriptional activation.
In the same manner as in Example 16, the effect of CREB-RP(308-386) overexpression on ERSE-mediated transcriptional activation was evaluated.
In addition, in the same manner as in Example 16, the effect of overexpression of CREB-RP(81-389) or CREB-RP(151-389) on ERSE-mediated transcriptional activation was evaluated. Here, each of CREB-RP(81-389) and CREB-RP(151-389) lacks transcription-activating domain.

Q: For `CNc1ccc2oc(C[C@H]3O[C@@]4(CC[C@H]3C)O[C@H]([C@H](C)C(=O)c3ccc[nH]3)[C@H](C)C[C@H]4C)nc2c1C(=O)O` [A23187], which “appearance of p50ATF6 relative to GRP78 induction” value [1] is on record?
A: p50ATF6 appeared in advance of GRP78 induction

Q: For “CREB-RP(308-386): CREB-RP amino acids 308th to 386th with N-terminal Met; only basic region and leucine zipper”, which “ERSE-dependent transcriptional induction by the TM treatment” value (from here on “ERSE-dependent transcriptional induction”) [2] is on record?
A: strongly suppressed

Q: How did the “appearance of p50ATF6 relative to GRP78 induction” value [1] turn out when `C/C=C(/C)C(=O)O[C@H]1C(C)=C2[C@H]([C@@H]1OC(=O)CCCCCCC)[C@@](C)(OC(C)=O)C[C@H](OC(=O)CCC)[C@@]1(O)[C@H]2OC(=O)[C@@]1(C)O` [thapsigargin] was run?
A: p50ATF6 appeared in advance of GRP78 induction

B1: CREB-RP(1-389): CREB-RP amino acids 1st to 389th, corresponding to p60CREB-RP, activated form (protein)
chain: AELMLLSEIADPTRFFTDNLLSPEDWDSTLYSGLDEVAEEQTQLFRCPEQDVPFDGSSLDVGMDVSPSEPPWELLPIFPDLQVKSEPSSPCSSSSLSSESSRLSTEPSSEALGVGEVLHVKTESLAPPLCLLGDDPTSSFETVQINVIPTSDDSSDVQTKIEPVSPCSSVNSEASLLSADSSSQAFIGEEVLEVKTESLSPSGCLLWDVPAPSLGAVQISMGPSLDGSSGKALPTRKPPLQPKPVVLTTVPMPSRAVPPSTTVLLQSLVQPPPVSPVVLIQGAIRVQPEGPAPSLPRPERKSIVPAPMPGNSCPPEVDAKLLKRQQRMIKNRESACQSRRKKKEYLQGLEARLQAVLADNQQLRRENAALRRRLEALLAENSELKLGSGNRKVVCIMVFLLFIAFNFGPVSISEPPSAPISPRMNKGEPQPRRHLLGFSEQEPVQGVEPLQGSSQGPKEPQPSPTDQPSFSNLTAFPGGAKELLLRDLDQLFLSSDCRHFNRTESLRLADELSGWVQRHQRGRRKIPQRAQERQKSQPRKKSPPVKAVPIQPPGPPERDSVGQLQLYRHPDRSQPAFLDAIDRREDTFYVVSFRRGHLLLPAISHNKTSRPKMSLVMPAMAPNETLSGRGAPGDYEEMMQIECEVMDTRVIHIKTSTVPPSLRKQPSPTPGNATGGPLPVSAASQAHQASHQPLYLNHP
Q: Which “ERSE-mediated transcription from GRP78 promoter on overexpression” value ([2]; without ER stress, not observed with mutant ERSE) does the source give for B1 here?
A: constitutively activated the transcription

B2: CREB-RP(81-389): CREB-RP deletion mutant lacking transcription-activating domain (protein, UniProt Q99941 81-389, looked up, fragment)
chain: IFPDLQVKSEPSSPCSSSSLSSESSRLSTEPSSEALGVGEVLHVKTESLAPPLCLLGDDPTSSFETVQINVIPTSDDSSDVQTKIEPVSPCSSVNSEASLLSADSSSQAFIGEEVLEVKTESLSPSGCLLWDVPAPSLGAVQISMGPSLDGSSGKALPTRKPPLQPKPVVLTTVPMPSRAVPPSTTVLLQSLVQPPPVSPVVLIQGAIRVQPEGPAPSLPRPERKSIVPAPMPGNSCPPEVDAKLLKRQQRMIKNRESACQSRRKKKEYLQGLEARLQAVLADNQQLRRENAALRRRLEALLAENSELK
Q: B2 was tested. Which “ERSE-dependent transcriptional induction” value [2] did it give?
A: strongly suppressed

B3: CREB-RP(151-389): CREB-RP deletion mutant lacking transcription-activating domain (protein, UniProt Q99941 151-389, looked up, fragment)
chain: VIPTSDDSSDVQTKIEPVSPCSSVNSEASLLSADSSSQAFIGEEVLEVKTESLSPSGCLLWDVPAPSLGAVQISMGPSLDGSSGKALPTRKPPLQPKPVVLTTVPMPSRAVPPSTTVLLQSLVQPPPVSPVVLIQGAIRVQPEGPAPSLPRPERKSIVPAPMPGNSCPPEVDAKLLKRQQRMIKNRESACQSRRKKKEYLQGLEARLQAVLADNQQLRRENAALRRRLEALLAENSELK
Q: For B3, which “ERSE-dependent transcriptional induction” value [2] is on record?
A: strongly suppressed
